{"source": "patent US20120195913A1", "about": "(Novartis, published 2012)", "binders": {"B1": {"name": "MOR06743 Fab (Fab, V domains shown)", "VH": "QVQLQQSGPGLVKPSQTLSLTCAISGDSVSSNSAAWGWIRQSPGRGLEWLGRIYYRSKWYNSYAVSVKSRITINPDTSKNQFSLQLNSVTPEDTAVYYCARYDWVPKIGVFDSWGQGTLVTVSS", "VL": "DIVLTQSPATLSLSPGERATLSCRASQMIDLRYLSWYQQKPGQAPRLLIYGSSSRATGVPARFSGSGSGTDFTLTISSLEPEDFAVYYCQQLYSSPMTFGQGTKVEIK", "notes": "Human Fab format; also called MOR6743"}, "B2": {"name": "MOR07342 Fab (Fab, V domains shown)", "VH": "B1 VH with S62N, D103K", "VL": "B1 VL with L92F, M97L", "notes": "Human Fab format"}, "B3": {"name": "MOR07348 Fab (Fab, V domains shown)", "VH": "B1 VH with S113L", "VL": "B1 VL with M28W, D30E, L31A, R32G", "notes": "Human Fab format; also called MOR7348; MOR007348"}, "B4": {"name": "MOR07347 Fab (Fab, V domains shown)", "VH": "B1 VH with D103Q", "VL": "B1 VL with M28E, D30L, L31P, R32E, L92F, M97L", "notes": "Human Fab format"}, "B5": {"name": "MOR07349 Fab (Fab, V domains shown)", "VH": "B1 VH with Y60W, S62D, S113G", "VL": "B1 VL with L92F, M97L", "notes": "Human Fab format"}, "B6": {"name": "MOR07685 Fab (Fab, V domains shown)", "VH": "B1 VH with D103Q", "VL": "B1 VL"}}, "note": "Positions count from the first letter of the chain named.", "data": [{"target": "T1, human BAFF receptor (BAFFR) (human, UniProt Q96RJ3 1-184)", "T1 sequence": "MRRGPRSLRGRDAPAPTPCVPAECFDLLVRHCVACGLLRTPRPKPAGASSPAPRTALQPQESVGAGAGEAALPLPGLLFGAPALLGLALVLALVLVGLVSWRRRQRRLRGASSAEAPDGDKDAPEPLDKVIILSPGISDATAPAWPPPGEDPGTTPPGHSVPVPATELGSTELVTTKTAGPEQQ", "test": "cell-based or functional assay", "units": {"B-cell proliferation Agonism EC50": "nM", "B-cell proliferation Inhibition IC50": "nM"}, "values": [{"binder": "B1", "B-cell proliferation Agonism EC50": "> 187", "B-cell proliferation Inhibition IC50": 2}, {"binder": "B2", "B-cell proliferation Agonism EC50": "> 187", "B-cell proliferation Inhibition IC50": 0.9}, {"binder": "B3", "B-cell proliferation Agonism EC50": "> 187", "B-cell proliferation Inhibition IC50": 2.9}, {"binder": "B4", "B-cell proliferation Agonism EC50": "> 187", "B-cell proliferation Inhibition IC50": 1.3}, {"binder": "B5", "B-cell proliferation Agonism EC50": "> 187", "B-cell proliferation Inhibition IC50": 3.5}]}, {"target": "T2, BAFFR:Fc fusion protein (human, UniProt Q96RJ3 1-78, biotinylated in the competition ELISA)", "T2 construct": "Bought reagent; also called human BAFFR:Fc; bio-BAFFR:Fc; not shown: Fc part of the bought fusion protein (Alexis / Axxora)", "T2 sequence": "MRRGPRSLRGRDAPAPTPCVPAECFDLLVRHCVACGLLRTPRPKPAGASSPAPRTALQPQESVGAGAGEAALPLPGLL", "test": "BLyS/BAFFR:Fc competition ELISA; antibody titrated, BLyS coated", "experimental": "96-well MaxiSorp plates are coated over night at 4° C. with human soluble BLyS. After coating, the wells were washed 4 times with PBS/0.05% Tween20 (PBST) and then blocked for 1 h at 37° C. with PBST containing 1% bovine serum albumin followed by 4 washing steps with PBST. Biotinylated human BAFFR:Fc fusion protein (Axxora) at 20 ng/ml was added and captured for 1 h at 37° C. together with increasing concentrations of anti-BAFFR antibodies. After another washing round, ExtrAvidin-Alkaline Phosphatase (Sigma) was added to the wells and incubated for 30 minutes at 37° C. The bound phosphatase was detected by adding a solution containing p-nitrophenyl phosphate in diethanolamin (Sigma). The color reaction was stopped after ca. 20 minutes with an equal volume of 2N sodium hydroxide and the absorbance was measured at 405 nm on a plate reader (SpectraMax 190, Molecular Devices).", "units": {"IC50": "nM"}, "values": [{"binder": "B1", "IC50": 0.1}, {"binder": "B2", "IC50": 0.14}, {"binder": "B3", "IC50": 0.96}, {"binder": "B4", "IC50": 0.1}, {"binder": "B5", "IC50": 0.44}]}, {"target": "T3, recombinant BCMA Fc-fusion protein (UniProt Q02223 1-54, limits assumed)", "T3 construct": "not shown: Fc part", "T3 sequence (looked up)": "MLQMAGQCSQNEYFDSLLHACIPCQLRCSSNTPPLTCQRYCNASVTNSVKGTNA", "test": "ELISA titration on Fc-captured antigen", "experimental": "(§1) 384-well MaxiSorp plates are coated over night at 4° C. with a goat anti-human IgG, Fc γ fragment specific capture antibody. After coating the wells were washed twice with PBS/0.05% Tween20 (PBST) and then blocked for 1 h at RT with PBST containing 5% milk powder followed by two washing steps with PBST. Recombinant BCMA and TACI Fc-fusion proteins are added and captured for 1 h at RT. Then the purified and diluted BAFFR specific Fabs are added and the plates are incubated for 1 h at RT. To detect the Fabs, an alkaline phosphatase (AP)-conjugated goat anti-human IgG, Fab specific is added and the plates are incubated for 1 h at RT. Following each incubation step the wells are washed five times with PBST. For the detection of the AP-conjugates, AttoPhos (Roche) is used according to the manufacturer's instructions. Fluorescence is measured using a TECAN Spectrafluor plate reader.\n(§2) In ELISA the Fabs are titrated from 400 nM down to 0.005 nM on […] captured to a Maxisorp plate via an anti-human Fc antibody. Only MOR07342 and MOR07346 show some cross-reactivity to BCMA at high Fab concentrations >100 nM. In contrast MOR06654, MOR07347, MOR07348, MOR07349 show no binding to BCMA above background. A 1000-fold discrimination factor is met by all Fabs.", "units": {"discrimination factor (BAFFR over BCMA)": "fold"}, "values": [{"binder": "B2", "discrimination factor (BAFFR over BCMA)": "≥ 1000"}, {"binder": "B3", "discrimination factor (BAFFR over BCMA)": "≥ 1000"}, {"binder": "B4", "discrimination factor (BAFFR over BCMA)": "≥ 1000"}, {"binder": "B5", "discrimination factor (BAFFR over BCMA)": "≥ 1000"}]}, {"target": "T3, recombinant BCMA Fc-fusion protein", "test": "ELISA on Fc-captured recombinant BCMA Fc-fusion", "experimental": "as §1, §2", "values": [{"binder": "B3", "binding result": "no binding (tested: titrated from 400 nM down to 0.005 nM)"}, {"binder": "B4", "binding result": "no binding (tested: titrated from 400 nM down to 0.005 nM)"}, {"binder": "B5", "binding result": "no binding (tested: titrated from 400 nM down to 0.005 nM)"}]}, {"target": "T1, human BAFF receptor (BAFFR)", "test": "competition FACS on Raji cells; Fab titrated, competitor biotinylated hsBLyS", "experimental": "The BAFFR-BLyS binding assay is performed using Raji cells expressing endogenous BAFFR. The BAFFR specific Fabs are used in final dilutions ranging from 40 to 0.001 nM. The diluted Fabs are incubated in 96-well plates with 5×10⁴ Raji cells per well for 1 h at 4° C. on a shaker. Then biotinylated hsBLyS is added in a final concentration of 25 ng/ml and the cells were incubated for 30 min at 4° C. on a shaker. The cells are washed twice with FACS buffer and then resuspended in phycoerythrin-conjugated Streptavidin (Dianova) which has been diluted 1:200 in FACS buffer. The staining is performed for one hour at 4° C. on a shaker. Finally the cells are washed twice with FAGS buffer, resuspended in FACS buffer and BLyS binding to cell surface BAFFR is detected via fluorescence cytometry in the FACSArray instrument (Becton Dickinson).\nThe IC50 values of the antibodies of the invention in a human Fab format are determined in a BAFFR-BLyS binding inhibition assay by Fab titration on Raji cells (FACS).", "units": {"IC50": "nM"}, "values": [{"binder": "B2", "IC50": 0.09}, {"binder": "B6", "IC50": 0.12}, {"binder": "B3", "IC50": 0.2}, {"binder": "B4", "IC50": 0.02}, {"binder": "B5", "IC50": 0.17}]}, {"target": "T1, human BAFF receptor (BAFFR)", "test": "FACS titration of Fab on transfected HEK293-hBAFFR cells", "experimental": "(§3) The EC₅₀ of the Fabs is determined by Fab titration in FACS on transfected HEK293 cells as well as on Raji cells expressing endogenous BAFFR.", "units": {"EC50": "nM"}, "values": [{"binder": "B2", "EC50": 0.18}, {"binder": "B3", "EC50": 0.24}, {"binder": "B4", "EC50": 0.08}, {"binder": "B5", "EC50": 0.24}]}, {"target": "T1, human BAFF receptor (BAFFR)", "test": "FACS titration of Fab on Raji cells (endogenous BAFFR)", "experimental": "as §3", "units": {"EC50": "nM"}, "values": [{"binder": "B2", "EC50": 0.06}, {"binder": "B3", "EC50": 0.12}, {"binder": "B5", "EC50": 0.13}]}, {"target": "T4, BCMA on transfected HEK293 cells (UniProt Q02223 1-184, limits assumed)", "T4 construct": "whole, on cells", "T4 sequence (looked up)": "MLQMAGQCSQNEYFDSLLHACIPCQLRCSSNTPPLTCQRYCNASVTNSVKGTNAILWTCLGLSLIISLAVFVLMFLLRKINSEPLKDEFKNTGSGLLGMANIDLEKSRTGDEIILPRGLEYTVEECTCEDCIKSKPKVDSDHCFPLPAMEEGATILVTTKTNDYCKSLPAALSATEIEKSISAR", "test": "FACS on BCMA-transfected HEK293 cells", "experimental": "In FACS the following Fabs are analyzed on BCMA-transfected HEK293 cells and titrated from 1 μM down to 0.005 nM: MOR06654, MOR06743, MOR07342, MOR07347, MOR7348 and MOR07349. At 330 nM only MOR07342 show an elevated binding signal which is 2-fold over background. All other tested Fabs show no signal at this concentration.", "values": [{"binder": "B3", "binding result": "no binding (tested: 1 µM)"}, {"binder": "B5", "binding result": "no binding (tested: 1 µM)"}]}]}
